In this assay the test system is AT derm mice (pTek-tTA:pTetOS-Tek). Briefly: Enforced expression of Ang1 or Ang2 in AT derm mice (triple transgenic). It counts as in vivo. As to conditions: for atopic dermatitis phenotype (erythema, ear micro-haemorrhages, tail scaly plaque): transgenic overexpression in the vasculature of AT derm mice. The source says: Briefly, construction of the driver transgene, pTek-tTA, and the responder transgenes, pTetOS-Tek, pTetos-Ang1, and pTetos-Ang2 have been described previously. All transgenic lines were maintained and genotyped as previously described (Voskas et al. (2005) Am. J. Pathol. 166(3):843-855, Ward et al. (2004) Am. J. Pathol. 165(3):889-899, Bureau et al. (2006) Am. J. Physiol. Heart Circ. Physiol. 291(2):H948-965). Males were housed with a single female for 14 to 20 days and then separated into individual cages. CD1 mice (an outbred mouse line) were maintained in a barrier facility. All adult mice used in these studies were 2 to 6 months old.
The present inventors have previously shown that enforced overexpression of the Tie2 receptor in the vasculature results in an inflammatory skin phenotype in mice (FIG. 3A) that is consistent with many hallmarks of human atopic dermatitis/psoriasis (Voskas et al. (2005) Am. J. Pathol. 166(3), 843-855, Voskas et al. (2009) J. Leukoc. Biol. 84(1), 59-67). […] Using common mouse transgenic approaches, a system was devised in which the impact of enforced expression of Ang1 or Ang2 could be assessed in this mouse model of inflammatory skin disease. This is the first such system where the implications of Ang1 or Ang2 expression can be simultaneously addressed in a single pathological state. […] This was marked by a gross reduction in snout, conjunctiva, ear and paw erythema (FIGS. 3C-E).

Turning to “Ang2: Angiopoietin 2, natural antagonist of Ang1, overexpressed from the pTetOS-Ang2 transgene”, the “atopic dermatitis phenotype (erythema, ear micro-haemorrhages, tail scaly plaque)” value is listed as “exacerbated all of the noted phenotypic hallmarks”.

B1: Ang1: Angiopoietin 1, Tie2 ligand, overexpressed in the vasculature from the pTetOS-Ang1 transgene (protein, UniProt Q15389 16-498, looked up)
Angiopoietin-1: HIGCSNQRRSPENSGRRYNRIQHGQCAYTFILPEHDGNCRESTTDQYNTNALQRDAPHVEPDFSSQKLQHLEHVMENYTQWLQKLENYIVENMKSEMAQIQQNAVQNHTATMLEIGTSLLSQTAEQTRKLTDVETQVLNQTSRLEIQLLENSLSTYKLEKQLLQQTNEILKIHEKNSLLEHKILEMEGKHKEELDTLKEEKENLQGLVTRQTYIIQELEKQLNRATTNNSVLQKQQLELMDTVHNLVNLCTKEGVLLKGGKREEEKPFRDCADVYQAGFNKSGIYTIYINNMPEPKKVFCNMDVNGGGWTVIQHREDGSLDFQRGWKEYKMGFGNPSGEYWLGNEFIFAITSQRQYMLRIELMDWEGNRAYSQYDRFHIGNEKQNYRLYLKGHTGTAGKQSSLILHGADFSTKDADNDNCMCKCALMLTGGWWFDACGPSNLNGMFYTAGQNHGKLNGIKWHYFKGPSYSLRSTTMMIRPLDF
For B1, the “atopic dermatitis phenotype (erythema, ear micro-haemorrhages, tail scaly plaque)” value was “dramatic amelioration of disease”. Also, for the setting “triple transgenic mice”, the “epidermal hyperplasia and dermal leukocyte infiltration (histology)” value is “resolution of epidermal hyperplasia”.

Source of the values: patent publication US9186390B2, “Methods and uses of TIE2 binding and/or activating agents” (Sunnybrook Health Sciences Center, priority 2010, dated 2015).
